Experiment: yeast display, Sf9 membrane polyspecificity reagent, FACS + sequencing; frameworks hold sequencing errors
Procedure, shortened: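 Using colony PCR, genes from sorted yeast display clones were amplified, then sequenced on MiSeq at 2 × 250 and filtered by CDR length. The clones had been stained with 10% biotinylated, detergent-solubilized Sf9 membrane reagent for 1 hour at 4 °C and sorted by FACS into low and high (top ~1%) gates on anti-HA and streptavidin fluorescence. Polyreactivity labels come from the gate of origin.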

Row | Sequence | polyreactivity (PSR sort gate)
1 | QVQLVESGGGLVQAGGSLRLSCAASGSTFNWYAMGWYRQAPGKERELVASIRISGGSTYYADSVKGRFTISRDNAKNTVYLQMNSLKPEDTAVYYCNAKLFIRWFTYDYLGQGTQVTVSS | low polyreactivity
2 | QVQLVESGGGLVQAGGSLRLSCAASGSTFNYNAMGWYRQAPGKERELVAAISSGASTNYADSVKGRFTISRDNAKNTVYLQMNSLKPEDTAVYYCAARSRTPGWYSTISRKMYWGQGTQVTVSS | high polyreactivity
3 | QVQLVESGGGLVQAGGSLRLSCAASGSTFPANAMGWYRPAPGKERELVAAISSVGSTNYADSVKGRFTISRDNAKNTVYLQMNSLKPEDTAVYYCATQPTWYTVGDLDYWGQGTQVTVSS | low polyreactivity
4 | QVQLVESGGGLVQAGGSLRLSCAASGSTFPAYAMGWYRQAPGKERELVAGISSGGRTYYADSVKGRFTISRDNAKNTVYLQMNSLKPEDTWVYYCAAFRFYWQRPERYYYWGQGTQVTVSS | high polyreactivity
5 | QVQLVESGGGLVQAGGSLRLSCAASGSTFPDNAMGWYRQAPGKERELVAAISWSGGSTNYADSVKGRFTISRDNAKNTVYLQMNSLKPEDTAVYYCNADDASHYYFRDEYWGLGTQVTVSS | low polyreactivity
6 | QVQLVESGGGLVQAGGSLRLSCAASGSTFPDNAMVWYRQAPGKEREFVATITWRGGRTNYADSVKGRFTISRDNAMNTVYLQMNSLKPEDTAFYYCDKVVRYARSNEYDTWGQGTQLTVSS | low polyreactivity
7 | QVQLVESGGGLVQAGGSLRLSCAASGSTFPEYAMGWYRKAPGKERELVAAISKSGGRTYYADSVKGRFTISRDNAKNTVYLQMNSLNPEDTAVYYCARDSYPHGRARFDYWGQGTQVTVSS | high polyreactivity
8 | QVQLVESGGGLVQAGGSLRLSCAASGSTFPEYAMGWYRQAPGKERELVADISSGGDTSYADSVKGRFTISRDNAKNTVYLQMNSLNPEDTAVYYCAAGTAGTTGSPKFSGYGYDYWGQGTQVTVSS | low polyreactivity
9 | QVQLVESGGGLVQAGGSLRLSCAASGSTFPFNAMGWYRQAPGKERELVAGIRSRGGSTYYADSVKGRFTISRDNAKNTVYLQMNSLIPEDTAVSSCAKVYKDRDDLFYYWGQGTQVTVSS | low polyreactivity
10 | QVQLVESGGGLVQAGGSLRLSCAASGSTFPFYAMGWYRQAPGKERELVAAITSGGSTYADSVKGRFTISRDNAKNTVYLQMNSLKPEDTAVYYCAASWPRWWRFGYWGQGTQVTVSS | low polyreactivity
11 | QVQLVESGGGLVQAGGSLRLSCAASGSTFPFYDMGWYRQAPGKERELVAAIRSGGSTYADSVKGRFTISRDNAKNTVYLQMNSLKPEDTAVYYCAKRCPSNRYSRYRVKYDYWGQGSQVTVSS | low polyreactivity
12 | QVQLVESGGGLVQAGGSLRLSCAASGSTFPFYDMGWYRQAPGKERELVTAIRSGGSTYADSVKGRFTISRDNAKNTVYLQMNSLKPVDTAVYYCAKRCPSIRYSRYRVKYDYWGQGTQVTVSS | low polyreactivity
13 | QVQLVESGGGLVQAGGSLRLSCAASGSTFPGYAMGWYRQAPGKERELVAAINGRGGSTYYADSVKGRFTISRDNAKNTVYLQMNSLKPEDSAVYYCAAFVGSRSAKYIKYWGQGTQVTVSS | high polyreactivity
14 | QVQLVESGGGLVQAGGSLRLSCAASGSTFPGYAMGWYRQAPGKERELVAAISASGGSTYYADSVKGRFTISRDNAKNTVYLQMNSLKPEDTAVYYCAKVLSRGASAHDYWGQGTQVTVSS | low polyreactivity
15 | QVQLVESGGGLVQAGGSLRLSCAASGSTFPGYAMGWYRQAPGKERELVAAISTSGGRTYYADSVKGRFTISRDNAKNTVYLQMNSLKPEDTAVYYCAADASTWYTEEYWGQGTQVTVSS | low polyreactivity
16 | QVQLVESGGGLVQAGGSLRLSCAASGSTFPIYAMGWYRQAPGKERELVAAITHRDGSTYYADSVKGRFTISRDNAKNTVYLQMNSLKPEDTAVYYCAAETYVVWFTFDYWGQGTQVTVSS | high polyreactivity
17 | QVQLVESGGGLVQAGGSLRLSCAASGSTFPLYAMGWYRQAPGKERELVAAITGGGGRTYYADSVKGRFTISRDNAKNTVYLQMNSLKPEETAVYYCAASKQRYYRWWTTPGYDYWGQGTQVTVSS | low polyreactivity
18 | QVQLVESGGGLVQAGGSLRLSCAASGSTFPPNAMGWYRPAPGKERELVAVISNGGSNTRYADSVKGRFTISRDNAKNTVYLQMNSLKPEDTAVYYCAADYEYSGYGYWGQGTQVTVSS | high polyreactivity
19 | QVQLVESGGGLVQAGGSLRLSCAASGSTFPPNAMGWYRQAPGKESELVAAISFSSGRTYYADSVKGRFTISRDNAKNTVYLQMNSLKPEDTAVYYCAADHGYWGQGTQVTVSS | low polyreactivity
20 | QVQLVESGGGLVQAGGSLRLSCAASGSTFPQNAMGWTRQAPGKERELVAVISRSGGNPYYADSVKGRFTISRDIAKNSVYLQMNSLKPEDTAVYYCATRVKTTYDYWGQGTQVTVSS | low polyreactivity
21 | QVQLVESGGGLVQAGGSLRLSCAASGSTFPQYAMGWYRQAPGKERELVAAISRSGGSTYYADSVKGRFTISRDNAKNTVYLQMNSLKPEDTAVYYCNVKSGFWFYPTMDYWGQGTQVTVSS | high polyreactivity
22 | QVQLVESGGGLVQAGGSLRLSCAASGSTFPRNAMGWSRQAPGKERELVAAISFRGSTTYYADSVKGRFTISRDNAKNTVYLQMNSLKPEDTAVYYCAADGGRQARTYSRYYWGQGTQVTVSS | high polyreactivity

Row | Sequence | polyreactivity (PSR sort gate)
23 | QVQLVESGGGLVQAGGSLRLSCAASGSTFPRNAMGWYRQAPGKERELVAAISSGGSTYYADSVKWRFTISRDNAKNTVYLQMNSLKPEDTAVYYCAARLYWPIIVVDLYGYDYWGQGTQVTVSS | low polyreactivity
24 | QVQLVESGGGLVQAGGSLRLSCAASGSTFPRNAMGWYRQAPGKERELVATISTSGGSTYYADSVKGRFTISRDNAKNTVYLQMNSLKPEDTPVYYCAAVFWFRSLSGYIYDYWGQGTQVSVSS | low polyreactivity
25 | QVQLVESGGGLVQAGGSLRLSCAASGSTFPRNAMGWYRQAPGKERELVATITSSGGGTYYADSVKGRFTISRDNAKNTVYLQMNSLKPEDTAVYYCNAAGPAGDAFDYWGQGTQVTVSS | low polyreactivity
26 | QVQLVESGGGLVQAGGSLRLSCAASGSTFPRNAMGWYRQAPGKEWELVAAISGRGVRTYYADSVKGRFTISSDNAKNTVNFQMYSLKPEDTAVYYCAASRGKGVGLAYDYWGQGTQVTVSS | high polyreactivity
27 | QVQLVESGGGLVQAGGSLRLSCAASGSTFPRYALGWYRQAPGKERELVAAISRSGGSTYYADSVKGRFTISRDNAKNTVYLQMNSLKPEDTAVYYCAARYERGSYKYDYWGQGTQVTVSS | high polyreactivity
28 | QVQLVESGGGLVQAGGSLRLSCAASGSTFPRYAMGWYRQAPGKEREFVAVIWSGGSTYYADSVKGRFTISRDNAKNTVYLQMNSLKPEDTAVYYCAAEYHTLSKYSGYATHDYWGQGTQVTVSS | low polyreactivity
29 | QVQLVESGGGLVQAGGSLRLSCAASGSTFPRYAMGWYRQAPGKERELVAAISKSGTITSYADSVKGRFTISRDNAKNTVYLQMNSLKPEDTAVYYCAKGRYWPYDYWGQGTQVTVSS | high polyreactivity
30 | QVQLVESGGGLVQAGGSLRLSCAASGSTFPSNAMGWYRQAPGKERELVAAITFRGGRTYYADSVKGRFTISRDNAKNTVYLQMNSLKPEDTAVYYCAAERWWYTVRGYGYWGQGTQVTVSS | high polyreactivity
31 | QVQLVESGGGLVQAGGSLRLSCAASGSTFPSYAMGWYRQAPGKERELVAAITNGGSTTYADSVKGRFTISRDNAKNTVYLQMNSLKPDDTAVYYCAARYYYYYYYIRRDYWGQGTQVTVSS | low polyreactivity
32 | QVQLVESGGGLVQAGGSLRLSCAASGSTFPVNTMGWYRQAPGKERELVAAITKNGANTYYADSVKGRFTISRDNAKNTVYLQMNSLKPEDTADYYCAARYVYGKSYSRWLVELDYWGQGTQVTVSS | low polyreactivity
33 | QVQLVESGGGLVQAGGSLRLSCAASGSTFPVYAMGWYRQAPGKERELVAAINSGVSTNYADSVKGRFTISRDNAKNTVYLQMNSLKPEDTAVYYCNTSYVGYPDLGINYEFDYWGQGTQVTVSS | low polyreactivity
34 | QVQLVESGGGLVQAGGSLRLSCAASGSTFPVYAMGWYRQAPGKERELVATISYSGGSTNYADSVKGRFTISRDNAKNTVYLQMNSLIPEDTAVYYCAARKVNRGSGGYDSWGQGTQVTVSS | high polyreactivity
35 | QVQLVESGGGLVQAGGSLRLSCAASGSTFPWYTMGWYRQAPGKERELVAAISFSGGRTYYADSVKGRFTISRDNAKNTVYLQMNSLKPEDTAVYYCAATVGAASRYYYWGQGTQVTVSS | high polyreactivity
36 | QVQLVESGGGLVQAGGSLRLSCAASGSTFPYNAKGWYRQAPGKERELVAAIDYSGGSTYADSVKGRFTISRDNAKNTVYLQMNSLKPEDTAVYYCAYCRVVVYDVSGDDEDYDYWRQGTQVTVSS | low polyreactivity
37 | QVQLVESGGGLVQAGGSLRLSCAASGSTFPYNTMGWYRQAPGKERDFVAAITGDGGTTYYADSVKGRFTISRDNAQNTVYLQMNSLKQEDTAVYYCAVPYPAEGYGGDYWGQGSQVTVSS | low polyreactivity
38 | QVQLVESGGGLVQAGGSLRLSCAASGSTFPYYAMGRYRQAPGKERELVAAISQNGGSTYYADSVKGRFTISRDNAKNTVYLQMNSLKPEDTAVYYCNADGVGGEYRLSGYDYWGQGTQVTVSS | low polyreactivity
39 | QVQLVESGGGLVQAGGSLRLSCAASGSTFPYYAMGWYRQAPGKERELVAAISGSGGTTYYADSVKGRFTISRDNAKNTVYLQMNILKPEDTAVYYCAAEASHYYYNAYPSYGGSDYWGQGTQVTVSS | low polyreactivity
40 | QVQLVESGGGLVQAGGSLRLSCAASGSTFPYYAMGWYRQAPGKERELVAAITSGGSTYYADSVKGRFTISRDNAKNTVYLQMNSLKPEDTAVYYCAARYAPTLSVYRFYYWGQGTQVTVSS | high polyreactivity
41 | QVQLVESGGGLVQAGGSLRLSCAASGSTFPYYAMGWYRQAPGKERELVAAITSSTGRTYYADSVKGRFTISRDNAKNTVYFQMNSLKPEDTAVYYCNAEVYSDPYNDHDYWGQGTQVTVSS | low polyreactivity
42 | QVQLVESGGGLVQAGGSLRLSCAASGSTFPYYAMGWYRQAPGKEWDLVAAISASVGSTYYADSVKGRFTISRDNAKNTVYLQMNSLKPEDTAVYYCNRVRSSYVYVSRFDSWGQGNQVTVSS | high polyreactivity
43 | QVQLVESGGGLVQAGGSLRLSCAASGSTFPYYARVWYRQEPGKETELVAAISSSGGSTYYADSVKGRFTISRDNAKNTVFLQMNSLKPEDPAVYYCAARRKFPYRHDYWGQGTLVTVSS | high polyreactivity

Reference: the nanobody polyreactivity screen of Harvey et al. (2022)
